From US20250121076A1, “POLYPEPTIDE DRUG CONJUGATE HAVING NOVEL STRUCTURE AND APPLICATION THEREOF” (MEDSHINE DISCOVERY INC., priority 2021, published 2025)
Counter-ions that a name gives are not always drawn. Starred links: 1 amine or outer side, 2 acyl side, 3 side chain; linkers in the order of their positions; H or OH if unused. Positions of bridges follow the written chain, without caps; N, C: chain ends. Non-standard residues stand in square brackets, D forms with d. Residues, ends and D or L forms follow the SMILES beside them. Chains are numbered I, II in the order given. *: point of attachment. TATA = O=C(CC[*:1])N1CN(C(=O)CC[*:2])CN(C(=O)CC[*:3])C1; Dolaproine = CO[C@@H]([C@@H]1CCCN1)[C@@H](C)C(=O)O; Dil = CC[C@H](C)[C@H](NC)[C@@H](CC(=O)O)OC; X2 = O=C(CCCC(=O)[*:2])NCCC(=O)[*:1]; PABC = O=C(OCc1ccc(N[*:1])cc1)[*:2]; X1 = C[C@@H](N*)[C@@H](O)c1ccccc1; Hyp = O=C(O)[C@@H]1C[C@@H](O)CN1; hArg = N=C(N)NCCCC[C@H](N)C(=O)O; Cit = NC(=O)NCCC[C@H](N)C(=O)O; Pen = CC(C)(S)[C@H](N)C(=O)O; NMeV = CN[C@H](C(=O)O)C(C)C; Sar = CNCC(=O)O

How the values were obtained:
NCI-H1975 = test: In vitro anti-proliferative activity, CellTiter-Glo; type: cell-based, Human; details: NCI-H1975, 72 h
Experimental: (§1) To investigate the effect of the compounds of the present invention on inhibiting cell proliferation by detecting the effect of the compounds on cell activity in vitro in tumor cell lines NCI-H1975 and SK-OV-3.
(§2) The tumor cell lines were cultured in a 37° C., no CO2 incubator and a 37° C., 5% CO2 incubator according to the culture conditions shown in Table 15, respectively. The cells were periodically passaged, and cells in a logarithmic growth phase were taken for plating.
(§3) Cells in a logarithmic growth phase were harvested and centrifuged at 1000 rpm for 3 min at room temperature. The supernatant was discarded, and the cells were resuspended in 5 mL of a culture medium. Then, 20 ul of the cell suspension was pipetted and mixed with trypan blue at 1:1 for staining for 3 min to detect cell viability and to count viable cells. The cell density was adjusted to 4000 NCI-H1975/well or 5000 SK-OV-3/well. Then, 90 μL of the cell suspension was added to each culture plate well, and a cell-free culture medium was added to blank control wells. […]
(§4) The detection was performed according to the instructions of the Promega CellTiter-Glo Luminescent Cell Viability Assay kit (Promega-G7573). The luminescence signal was detected on the En Vision® Multi-mode Plate Reader (EnVision 2104-10). […]

SK-OV-3 = test: as above; type: cell-based, Human; details: SK-OV-3, 72 h
Experimental: as §1, §2, §3, §4

[1] = Pharmacokinetic analysis in rat plasma (6.1, 2 mg/kg); type: in vivo, SD rats; details: rat, in vivo, SD rats, single IV 2 mg/kg, plasma
Experimental: Experimental purpose: To test the pharmacokinetics of the compounds of the present invention in SD rats.
6.1 The pharmacokinetic characteristics of the compound after intravenous injection and oral administration were tested in rats according to a standard protocol. The compound to be tested was formulated into a clear solution using 50 mM acetate buffer (pH=5) in 10% sucrose as a vehicle. Two SD rats were given a single intravenous injection of 2 mg/kg of the compound to be tested. Whole blood was collected at time points of 0.083, 0.25, 0.5, 1, 2, 4, 8, and 24 hours after administration to get plasma. The concentration of the compound to be tested and the concentration of its potential metabolite MMAE were analyzed by the LC-MS/MS method, and the pharmacokinetic parameters were calculated by Phoenix WinNonlin software.

Stability in plasma = type: in vitro ADME, SD rats; details: SD rat plasma, 2 μM, 37° C., up to 240 min
Experimental: To test the stability of the compounds of the present invention in plasma from rats, Cynomolgus macaques, and humans.
The corresponding incubation plates, including T0, T10, T30, T60, T120, and T240 incubation plates, were added with a 2 μL working solution of the compound to be tested (100 μM). Three parallel wells were prepared for each sample. Then, 98 μL of blank plasma from SD rats, Cynomolgus macaques, and humans was added to the corresponding incubation plates to which the working solution had been added. All samples were incubated in a 37° C. water bath. […] At the end of each incubation time point, the corresponding incubation plate was removed, added with stop buffer, precipitated, and centrifuged for 20 minutes. Then, 150 μL of the supernatant was analyzed by the LC-MS/MS method. The concentration of the compound to be tested in the sample was semi-quantitatively determined by the liquid chromatography-tandem mass spectrometry (LC-MS/MS) method.

[2] = Metabolic stability in hepatocytes; type: in vitro ADME, Cynomolgus macaques; details: Cynomolgus macaque hepatocytes, 1 μM, 0.5×10^6 cells/mL
Experimental: To investigate the metabolic stability of the compounds of the present invention in hepatocytes from Cynomolgus macaques and humans.
Incubations were performed in 96-well plates using an external extraction method. Several 96-well sample precipitation plates, designated T0, T15, T30, T60, T90, T0-MC, T90-MC, and blank matrix, were prepared, respectively. The recovery culture medium and incubation culture medium were removed in advance and placed in a 37° C. water bath for preheating. Frozen hepatocytes from Cynomolgus macaques and humans were removed from a liquid nitrogen tank, recovered, and diluted to 0.51×10^6 cells/mL with the incubation culture medium. […]
At the end of the incubation at the corresponding time point, the incubation plates were removed, from which 25 μL of a compound mixture with the cells was removed and added to sample plates containing 125 μL of stop buffer. […] All samples were mixed uniformly and then analyzed by the LC-MS/MS method.
The concentration of the compound of the present invention in the sample was semi-quantitatively determined by the liquid chromatography-tandem mass spectrometry (LC-MS/MS) method without a standard curve and quality control sample. […]

In the case of CC[C@H](C)[C@@H]([C@@H](CC(=O)N1CCC[C@H]1[C@H](OC)[C@@H](C)C(=O)N[C@H](C)[C@@H](O)c1ccccc1)OC)N(C)C(=O)[C@@H](NC(=O)[C@H](C(C)C)N(C)C(=O)OCc1ccc(NC(=O)[C@H](CCCNC(N)=O)NC(=O)[C@@H](NC(=O)CCCC(=O)NCCC(=O)N(C)CC(=O)N(C)CC(=O)N(C)CC(=O)N(C)CC(=O)N(C)CC(=O)N(C)CC(=O)N(C)CC(=O)N(C)CC(=O)N(C)CC(=O)N(C)CC(=O)N[C@H]2CCCCNC(=O)C[C@@H](C(=O)N[C@H]3CSCCC(=O)N4CN5CN(C4)C(=O)CCSC(C)(C)[C@@H](C(N)=O)NC(=O)[C@H](CCCCNC(=N)N)NC(=O)[C@H](Cc4c[nH]c6ccccc46)NC(=O)[C@@H](CC(=O)O)NC(=O)[C@@H]4CCCN4C(=O)[C@H](Cc4c[nH]cn4)NC(=O)[C@H](CC(C)C)NC(=O)[C@H](CSCCC5=O)NC(=O)[C@H](CC(C)C)NC(=O)[C@@H]4CCCN4C(=O)[C@H](CC(N)=O)NC(=O)[C@H](C(C)C)NC(=O)[C@H](CC(C)C)NC(=O)[C@@H]4C[C@@H](O)CN4C3=O)NC(=O)[C@H](CCCCNC(=N)N)NC2=O)C(C)C)cc1)C(C)C [Acetate salt of PDC_8] (I: [Sar][Sar][Sar][Sar][Sar][Sar][Sar][Sar][Sar][Sar]K[hArg]DC[Hyp]LVNPLCLHP[dD]W[hArg][Pen]-NH2 / II: V[Cit][PABC][NMeV]V[Dil][Dolaproine]-X1; lactam I:11-I:13; linker I:14-I:21-I:28 via TATA; linker I:N-II:N via X2), the IC50 (NCI-H1975) is reported as 79 nM, the IC50 (SK-OV-3) is reported as 586 nM and the AUC(0-t) [1] is reported as 0.518 µM·h. It also gave a C0 [1] of 1670 nM, a clearance [1] of 14.4 mL/min/kg and a half-life [1] of 0.29 h. For the same molecule, the Vd ([1]; read-out: Vdss) was 0.28 L/kg, the half-life (Stability in plasma) was > 9.63 h and the half-life [2] was > 3.61 h. The CLint scaled ([2]; read-out: CLint (liver)) was < 23 mL/min/kg.
